Data taken from paper PMC5974088.

Key:
Assay in all cases: ITC; 200-400 μM 53BP1 Tudor domain (wt or mutant) injected into 200 μl of 22-44 μM TIRR or Nudt16 (wt or mutant); 25 °C; 20 mM Tris-HCl pH 7.5, 150 mM NaCl; single-site binding model
[1] = biological target: TIRR H106R (not stated (human or mouse cDNA cloned)) (UniProt Q8VHN8)
[2] = biological target: TIRR H106Q (not stated (human or mouse cDNA cloned)) (UniProt Q8VHN8)
[3] = biological target: TIRR H106W (not stated (human or mouse cDNA cloned)) (UniProt Q8VHN8)
[4] = biological target: Nudt16 ^H105 (H. sapiens) (UniProt Q96DE0)
[5] = biological target: Nudt16 ^H105 with R5, L7, V100 substituted by TIRR residues K10, I12, L101 (H. sapiens) (UniProt Q96DE0)
[6] = biological target: TIRR H106Y (not stated (human or mouse cDNA cloned)) (UniProt Q8VHN8)
[7] = biological target: TIRR I12A (not stated (human or mouse cDNA cloned)) (UniProt Q8VHN8)
[8] = biological target: Nudt16 ^W105 (H. sapiens) (UniProt Q96DE0)
[9] = biological target: TIRR I12G (not stated (human or mouse cDNA cloned)) (UniProt Q8VHN8)
[10] = biological target: TIRR P105A (not stated (human or mouse cDNA cloned)) (UniProt Q8VHN8)
[11] = biological target: TIRR H106K (not stated (human or mouse cDNA cloned)) (UniProt Q8VHN8)
[12] = biological target: TIRR H106A (not stated (human or mouse cDNA cloned)) (UniProt Q8VHN8)
[13] = biological target: TIRR K10E (not stated (human or mouse cDNA cloned)) (UniProt Q8VHN8)
[14] = biological target: TIRR H106Δ (not stated (human or mouse cDNA cloned)) (UniProt Q8VHN8)
[15] = biological target: TIRR L20A (not stated (human or mouse cDNA cloned)) (UniProt Q8VHN8)

53BP1 tandem Tudor domain (1484-1603), sequence (Q12888 other isoform, or with tags, fused parts or gaps): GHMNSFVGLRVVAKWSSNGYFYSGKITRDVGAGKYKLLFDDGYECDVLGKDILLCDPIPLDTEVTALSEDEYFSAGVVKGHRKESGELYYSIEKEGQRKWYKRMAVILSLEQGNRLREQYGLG

Which results are given for “53BP1 tandem Tudor domain (1484-1603) (from UniProt Q12888 1484-1603) (domain or fragment)”?
Kd [1]: 1.9 µM; Kd [2]: 5.1 µM; Kd [3]: 0.5 µM; Kd [4]: 7.1 µM; Kd [5]: 1 µM; Kd [6]: 1.4 µM; Kd [7]: 4.9 µM; Kd [8]: 3.6 µM; Kd [9]: 38.3 µM; Kd [10]: 4.3 µM; Kd [11]: 6.8 µM; Kd [12]: 3.9 µM; Kd [13]: 20.4 µM; Kd [14]: 17.8 µM; Kd [15]: 25.5 µM
